Laboratory results published in patent US20200115466A1 (NANOCRUISE PHARMACEUTICAL, published 2020).

Target: T1, MUC1 on the surface of lung cancer cell line H838 (UniProt P15941 24-1255, limits assumed, tumour-type glycosylation (GalNAc epitope RPAPGS(GalNAc)TAPPAHG), as the filing describes the antigen)
T1 construct: whole, on cells; No MUC1-negative control of H838 is reported; also called antigen
Experiment: flow cytometry, surface staining of H838 cells, PE anti-human IgG
Procedure: Lung cancer cell line H838 was obtained from the University of Texas M.D. Anderson Cancer Center. Cells were cultured in 10% RPMI 1640 medium. Different concentrations of chimeric antibody or humanized antibodies were used as primary antibody for staining, washed three times with PBS, then incubated with PE-conjugated mouse-anti-human IgG (BioLegend). The stained cells were analyzed by FACS Caliber flow cytometer (BD Biosciences, San Jose, Calif.).

T1 sequence (P15941 24-1255 limits assumed): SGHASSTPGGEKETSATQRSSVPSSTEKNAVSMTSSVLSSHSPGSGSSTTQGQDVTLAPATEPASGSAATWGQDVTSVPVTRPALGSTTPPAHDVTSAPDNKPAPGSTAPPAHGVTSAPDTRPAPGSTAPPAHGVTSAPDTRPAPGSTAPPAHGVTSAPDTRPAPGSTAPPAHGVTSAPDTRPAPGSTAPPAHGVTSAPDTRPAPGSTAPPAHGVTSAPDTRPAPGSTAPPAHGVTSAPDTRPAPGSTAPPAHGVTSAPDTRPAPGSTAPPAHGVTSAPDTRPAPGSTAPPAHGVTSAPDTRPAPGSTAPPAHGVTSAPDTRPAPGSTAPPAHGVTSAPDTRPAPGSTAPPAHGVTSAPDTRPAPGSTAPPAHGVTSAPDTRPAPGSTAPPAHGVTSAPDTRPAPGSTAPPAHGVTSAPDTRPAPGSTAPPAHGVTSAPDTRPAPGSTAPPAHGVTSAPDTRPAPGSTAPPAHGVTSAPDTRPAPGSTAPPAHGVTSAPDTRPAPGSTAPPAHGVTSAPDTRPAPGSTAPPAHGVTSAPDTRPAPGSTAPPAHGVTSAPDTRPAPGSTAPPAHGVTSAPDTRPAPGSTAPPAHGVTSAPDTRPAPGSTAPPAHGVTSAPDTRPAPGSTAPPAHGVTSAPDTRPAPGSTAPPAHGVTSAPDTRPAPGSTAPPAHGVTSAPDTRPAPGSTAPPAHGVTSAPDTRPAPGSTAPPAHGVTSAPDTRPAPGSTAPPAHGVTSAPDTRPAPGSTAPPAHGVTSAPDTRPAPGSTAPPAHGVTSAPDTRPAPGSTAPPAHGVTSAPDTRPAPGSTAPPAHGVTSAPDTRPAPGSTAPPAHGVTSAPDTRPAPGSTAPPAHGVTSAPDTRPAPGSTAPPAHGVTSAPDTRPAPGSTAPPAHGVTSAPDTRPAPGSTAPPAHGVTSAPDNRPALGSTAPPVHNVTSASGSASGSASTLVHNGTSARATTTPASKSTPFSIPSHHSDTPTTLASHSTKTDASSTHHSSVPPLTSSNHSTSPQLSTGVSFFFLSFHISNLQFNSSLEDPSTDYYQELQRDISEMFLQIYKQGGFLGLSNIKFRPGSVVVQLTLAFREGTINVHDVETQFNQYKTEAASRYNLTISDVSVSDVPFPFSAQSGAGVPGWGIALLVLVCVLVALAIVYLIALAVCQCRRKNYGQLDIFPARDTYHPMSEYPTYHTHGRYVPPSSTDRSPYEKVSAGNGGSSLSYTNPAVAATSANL

Binder | Minimum concentration of binding to lung cancer cell line H838
humanized 16A antibody hVH2hVL2 (antibody, human IgG1, lambda, V domains shown, CDR-grafted humanized antibody; also called Humanized HC 2 (H2988) with Humanized LC2 (L2988)) VH: EVQLVESGGGLVQPGGSLRLSCAVSGIDFSRYWMSWVRQAPGKGLEWVGEITPDSNTINYVPSVKGRFTISRDNAKNSLYLQMNSLRAEDTAVYYCASYYEGFAYWGQGTLVTVSS VL: QAVVTQEPSLTVSPGGTVTLTCGSSTGAVITSNYANWVQQKPGQAPTGLIGRTYNKVPWTPARFSGSLLGDKAALTLSGAQPEDEAEYFCALWYSNHFVFGGGTKLTVLG | 0.025 µg/mL
humanized 16A antibody hVH4hVL2 (antibody, human IgG1, lambda, V domains shown, CDR-grafted humanized antibody; also called Humanized HC 4 (H2990) with Humanized LC2 (L2988)) VH: EVQLVESGGGLVQPGGFLRLSCVVSGIDFSRYWMSWVRQAPGKGLEWVGEITPDSNTINYVPSVKGNFGISRDNAKNSLFLQMNSLRAEDTAVYFCASYYEGFAYWGQGTLVTVSS VL: QAVVTQEPSLTVSPGGTVTLTCGSSTGAVITSNYANWVQQKPGQAPTGLIGRTYNKVPWTPARFSGSLLGDKAALTLSGAQPEDEAEYFCALWYSNHFVFGGGTKLTVLG | 0.05 µg/mL
humanized 16A antibody hVH5hVL2 (antibody, human IgG1, lambda, V domains shown, CDR-grafted humanized antibody; also called Humanized HC 5 (H2991) with Humanized LC2 (L2988)) VH: EVQLVESGGGLVQPGGSLRLSCVVSGIDFSRYWMSWVRQAPGKGLEWVGEITPDSNTINYVPSVKGRFGISRDNAKNSLYLQMNSLRAEDTAVYFCASYYEGFAYWGQGTLVTVSS VL: QAVVTQEPSLTVSPGGTVTLTCGSSTGAVITSNYANWVQQKPGQAPTGLIGRTYNKVPWTPARFSGSLLGDKAALTLSGAQPEDEAEYFCALWYSNHFVFGGGTKLTVLG | 0.025 µg/mL
humanized 16A antibody hVH1hVL2 (antibody, human IgG1, lambda, V domains shown, CDR-grafted humanized antibody; also called Humanized HC 1 (H2987) with Humanized LC2 (L2988)) VH: EVQLVESGGGLVQPGGSLRLSCAVSGIDFSRYWMSWVRQAPGKGLEWVAEITPDSNTINYVPSVKGRFTISRDNAKNSLYLQMNSLRAEDTAVYYCASYYEGFAYWGQGTLVTVSS VL: QAVVTQEPSLTVSPGGTVTLTCGSSTGAVITSNYANWVQQKPGQAPTGLIGRTYNKVPWTPARFSGSLLGDKAALTLSGAQPEDEAEYFCALWYSNHFVFGGGTKLTVLG | 0.025 µg/mL
humanized 16A antibody hVH3hVL2 (antibody, human IgG1, lambda, V domains shown, CDR-grafted humanized antibody; also called Humanized HC 3 (H2989) with Humanized LC2 (L2988)) VH: EVKLVESGGGLVQPGGSLRLSCAVSGIDFSRYWMSWVRQAPGKGLEWVGEITPDSNTINYVPSVKGRFTISRDNAKNSLYLQMNSLRAEDTAVYFCASYYEGFAYWGQGTLVTVSS VL: QAVVTQEPSLTVSPGGTVTLTCGSSTGAVITSNYANWVQQKPGQAPTGLIGRTYNKVPWTPARFSGSLLGDKAALTLSGAQPEDEAEYFCALWYSNHFVFGGGTKLTVLG | 0.025 µg/mL
mouse-human chimeric antibody 16A (antibody, human IgG1, lambda, V domains shown, Murine 16A VH and VL joined to human IgG1 constant region and human lambda 2 light chain; also called chimeric 16A; 16A chimeric antibody) VH: EVKLHQSGGGLVQPGGFLKISCVVSGIDFSRYWMSWVRRAPGKGLEWIGEITPDSNTINYVPSLKDNFGISRDNAKNTLFLQMTKVRSEDTALYFCASYYEGFAYWGQGTLVTVSA VL: QAVVTQESALTTSPGETVTLTCRSSTGAVITSNYANWVQEKPDHLFTGLIGRTYNRVPGVPARFSGSLIGDKAALTITGAQTEDEAIYFCALWYSNHFVFGGGTKLTVLG | 0.0125 µg/mL
